Measurements as given in patent US20250290928A1, “METHOD, KIT AND DEVICE FOR DETECTING EXTRACELLULAR VESICLES” (priority 2022, published 2025).
No end group written: not given here. *: point of attachment. 5FAM = O=C1OC2(c3ccc(O)cc3Oc3cc(O)ccc32)c2ccc(C(=O)*)cc21; TF3 = Tide Fluor 3, fluorescent dye; TQ2 = quencher; TQ3 = quencher

Columns and labels:
[1] = target: T1, MMP14 in the MDA-MB-231-derived extracellular vesicles (Homo sapiens, UniProt P50281); experiment: Evaluation of MMP14 activity of MDA-MB-231-derived extracellular vesicles with 96-well plate; type: biochemical
T1 construct: in terms of intact MMP14 with a molecular weight of 70 kDa
Protocol: A relative fluorescence unit difference ΔRFU was calculated by subtracting the measured value of the sample for BG measurement from the measured value of each of the samples.
The concentration of the solution is 41.7 μg/mL. The concentration of the solution was set to x1, and 2-fold serial dilution was performed to prepare standard samples with six concentrations.
50 μL of the MMP14 detection solution was added to 50 μL of each of the samples, a reaction was performed at 37° C., and MMP14 activity was evaluated.
The concentration of the solution is 10 μg/mL.
50 μL of each of the MMP14 detection solutions was added to 50 μL of each of the samples, a reaction was performed at 37° C., and MMP14 activity was evaluated. […]
The concentration of the solution is 20 μg/mL. The concentration of the solution was set to x1, and 3-fold serial dilution was performed to prepare standard samples with three concentrations.
The concentration of the solution is 8 μg/mL.
50 μL of each of the MMP14 detection solutions was added to 50 μL of the sample, a reaction was performed at 37° C., and MMP14 activity was evaluated. […]
50 μL of the MMP14 detection solution was added to 50 μL of each of the samples, a reaction was performed at 30° C., and MMP14 activity was evaluated.
The MMP14 activity of the extracellular vesicles was evaluated with a 96-well plate (137101). A fluorescence intensity was measured with a fluorescence plate reader (Synergy) at 30° C. every 5 minutes for 2 hours. For measurement wavelengths, an excitation wavelength of 545±20 nm and a fluorescence wavelength of 588±20 nm were used. A relative fluorescence unit difference (ΔRFU) was calculated by subtracting the measured value of the sample for BG measurement from the measured value of each of the samples.
50 μL of each of the MMP14 detection solutions was added to 50 μL of each of the samples, a reaction was performed at 30° C., and MMP14 activity was evaluated.

[2] = target: T1, MMP14 in the MDA-MB-231-derived extracellular vesicles; experiment: Digital detection of MDA-MB-231-derived extracellular vesicles through MMP14 activity in wells (microcompartments); type: biochemical; settings: for Expected value λ / Number of positives / Positive ratio: reporter 5 μM, 30° C.
Protocol: The concentration of the solution is 6.7 μg/mL.
100 μL of the MMP14 detection solution was added to 100 μL of the sample to provide a reaction solution for wells. […] 100 μL of 200 μL of the prepared reaction solution for wells was used in the measurement of MMP14 activity with a 96-well plate.
Next, the wells were filled with the reaction solution by leaving the well array 200 to stand under reduced pressure to degas the space 205. After that, the space 205 was fed with hydrophobic solvents to be sealed. Fluorinated oils AsahiKlin AE-3000 (manufactured by AGC Inc.) and Fomblin Y-25 (manufactured by Solvay S.A.) were used as the hydrophobic solvents. A fluorinated oil Simoa (trademark) SR-X Sealing Oil: 102767 (manufactured by Quanterix Corporation) was further used as another hydrophobic solvent.
Well diameter: 4.25 μm Well depth: 3.25 μm Well capacity: 50 fL Number of wells in array: 239,000 Array range: 3 mm×4 mm
The concentration of the solution is 20 μg/mL. […] The concentration of the solution was set to x1, and 10-fold serial dilution was performed to prepare standard samples with five concentrations.
Next, the wells were filled with the reaction solution by leaving the well array 200 to stand under reduced pressure to degas the space 205. After that, the space 205 was fed with hydrophobic solvents to be sealed.
The concentration of the solution is 20 μg/mL. […] The concentration of the solution was set to x1, and 3-fold serial dilution was performed to prepare standard samples with three concentrations.
The concentration of the solution is 20 μg/mL. […] The concentration of the solution was set to x1, and 2-fold serial dilution was performed to prepare standard samples with four concentrations.
The concentration of the solution is 5 μg/mL.
50 μL of the MMP14 detection solution was added to 50 μL of the sample to provide a reaction solution for wells.
50 μL of each of the MMP14 detection solutions was added to 50 μL of the sample to provide a reaction solution for wells.
The concentration of the solution is 6.7 µg/mL.

[3] = Example 42, EV 2.5 μg/mL, 4 hr, TRITC filter
[4] = Example 42, EV 2.5 μg/mL, 24 hr, TRITC filter
[5] = Example 37, EV 5 μg/mL, reporter 5 μM, buffer (4)
[6] = MP, 1.25 μM with 5 μM Custom #2TF3
[7] = MP, 2.5 μM with 2.5 μM Custom #2TF3
[8] = Example 38, 4 hr, at a concentration of x1, 50 fL
[9] = Example 38, 24 hr, at a concentration of x1, 50 fL
[10] = Example 38, EV 2.5 μg/mL, 24 hr

MCA-Pro-Leu-Ala-Cys(p-OMeBz)-Trp-Ala-Arg(Dpa)-NH2 [MMP-14 Substrate I]
detection of MMP14 activity (fluorescence intensity increased with the reaction time) ([1]; Example 3, EV 5 μg/mL, reporter 10, 5 or 2.5 μM, 37° C., 2 hours): MMP14 activity was able to be detected

TF3-GGPLGLAGGK(TQ3) [Custom #2TF3]
Fluorescence change after 2 hours of reaction at 30° C. ([1]; Example 41, EV 5 μg/mL, reporter 5 μM, buffer (4), excitation 545±20 nm, fluorescence 588±20 nm): 3,791 ΔRFU | Fluorescence change after 2 hours of reaction at 30° C. ([1]; MP, 2.5 μM Custom #2TF3 with 2.5 μM Custom #11): 313 ΔRFU | Fluorescence change after 2 hours of reaction at 30° C. ([1]; MP, 2.5 μM Custom #2TF3 with 2.5 μM Custom #12): 319 ΔRFU | Fluorescence change after 2 hours of reaction at 30° C. ([1]; MP, 2.5 μM Custom #2TF3 with 2.5 μM Custom #13): 452 ΔRFU | Fluorescence change after 2 hours of reaction at 30° C. ([1]; MP, 2.5 μM Custom #2TF3 with 2.5 μM Custom #14): 397 ΔRFU | Fluorescence change after 2 hours of reaction at 30° C. ([1]; MP, 2.5 μM Custom #2TF3 with 2.5 μM Custom #15): 551 ΔRFU | Fluorescence change after 2 hours of reaction at 30° C. ([1]; MP, 2.5 μM Custom #2TF3 with 2.5 μM Custom #16): 1,085 ΔRFU | Fluorescence change after 2 hours of reaction at 30° C. ([1]; MP, 5 μM Custom #2TF3 with 1.25 μM Custom #11): 772 ΔRFU | Fluorescence change after 2 hours of reaction at 30° C. ([1]; MP, 5 μM Custom #2TF3 with 1.25 μM Custom #12): 618 ΔRFU | Fluorescence change after 2 hours of reaction at 30° C. ([1]; MP, 5 μM Custom #2TF3 with 1.25 μM Custom #13): 814 ΔRFU | Fluorescence change after 2 hours of reaction at 30° C. ([1]; MP, 5 μM Custom #2TF3 with 1.25 μM Custom #14): 714 ΔRFU | Fluorescence change after 2 hours of reaction at 30° C. ([1]; MP, 5 μM Custom #2TF3 with 1.25 μM Custom #15): 1,023 ΔRFU | Fluorescence change after 2 hours of reaction at 30° C. ([1]; MP, 5 μM Custom #2TF3 with 1.25 μM Custom #16): 1,857 ΔRFU | Expected value λ [2, 3]: 0.1432 | Number of positives [2, 3]: 3,746 | Positive ratio [2, 3]: 0.1334 | Expected value λ [2, 4]: 0.1447 | Number of positives [2, 4]: 3,783 | Positive ratio [2, 4]: 0.1347 | Expected value λ (×1) ([2]; single reporter, reaction 4 hr, at EV concentration x1): 0.5727 | Extracellular vesicle concentration ([2]; single reporter, reaction 4 hr, at x1, from λ (×1) and 50 fL microcompartment): 1.1454e+10 mL⁻¹ | Expected value λ (×1) ([2]; single reporter, reaction 24 hr, at EV concentration x1): 0.5788 | Extracellular vesicle concentration ([2]; single reporter, reaction 24 hr, at x1, from λ (×1) and 50 fL microcompartment): 1.1576e+10 mL⁻¹

TQ2-DLPAGLQARK(5-FAM) (TQ2-DLPAGLQARK(5FAM)) [Custom #14]
Fluorescence change after 2 hours of reaction at 30° C. [1, 5]: 34,878 ΔRFU | Fluorescence change after 2 hours of reaction at 30° C. [1, 6]: 9,504 ΔRFU | Fluorescence change after 2 hours of reaction at 30° C. [1, 7]: 14,104 ΔRFU | Expected value λ (×1) ([2]; Example 38, 4 hr): 0.9841 | Extracellular vesicle concentration [2, 8]: 1.968e+10 mL⁻¹ | Expected value λ (×1) ([2]; Example 38, 24 hr): 1.5709 | Extracellular vesicle concentration [2, 9]: 3.142e+10 mL⁻¹ | Expected value λ ([2]; Example 38, EV 2.5 μg/mL, 4 hr): 0.246 | Number of positives ([2]; Example 38, EV 2.5 μg/mL, 4 hr): 6,120 | Positive ratio ([2]; Example 38, EV 2.5 μg/mL, 4 hr): 0.2181 | Expected value λ [2, 10]: 0.3927 | Number of positives [2, 10]: 9,120 | Positive ratio [2, 10]: 0.3248

TQ2-FMPLGLRGIK(5-FAM) (TQ2-FMPLGLRGIK(5FAM)) [Custom #12]
Fluorescence change after 2 hours of reaction at 30° C. [1, 5]: 32,801 ΔRFU | Fluorescence change after 2 hours of reaction at 30° C. [1, 6]: 13,343 ΔRFU | Fluorescence change after 2 hours of reaction at 30° C. [1, 7]: 19,102 ΔRFU | Expected value λ (×1) ([2]; Example 38, 4 hr): 0.5189 | Extracellular vesicle concentration [2, 8]: 1.0377e+10 mL⁻¹ | Expected value λ (×1) ([2]; Example 38, 24 hr): 1.232 | Extracellular vesicle concentration [2, 9]: 2.464e+10 mL⁻¹ | Expected value λ ([2]; Example 38, EV 2.5 μg/mL, 4 hr): 0.1297 | Number of positives ([2]; Example 38, EV 2.5 μg/mL, 4 hr): 3,416 | Positive ratio ([2]; Example 38, EV 2.5 μg/mL, 4 hr): 0.1216 | Expected value λ [2, 10]: 0.308 | Number of positives [2, 10]: 7,423 | Positive ratio [2, 10]: 0.2651

TQ2-LAPLGLQRRK(5-FAM) (TQ2-LAPLGLQRRK(5FAM)) [Custom #11]
Fluorescence change after 2 hours of reaction at 30° C. [1, 5]: 33,665 ΔRFU | Fluorescence change after 2 hours of reaction at 30° C. [1, 6]: 12,156 ΔRFU | Fluorescence change after 2 hours of reaction at 30° C. [1, 7]: 18,065 ΔRFU | Expected value λ (×1) ([2]; Example 38, 4 hr): 0.5433 | Extracellular vesicle concentration [2, 8]: 1.087e+10 mL⁻¹ | Expected value λ (×1) ([2]; Example 38, 24 hr): 1.166 | Extracellular vesicle concentration [2, 9]: 2.3319e+10 mL⁻¹ | Expected value λ ([2]; Example 38, EV 2.5 μg/mL, 4 hr): 0.1358 | Number of positives ([2]; Example 38, EV 2.5 μg/mL, 4 hr): 3,566 | Positive ratio ([2]; Example 38, EV 2.5 μg/mL, 4 hr): 0.127 | Expected value λ [2, 10]: 0.2915 | Number of positives [2, 10]: 7,100 | Positive ratio [2, 10]: 0.2529

TQ2-WPHGSLQAAK(5-FAM) (TQ2-WPHGSLQAAK(5FAM)) [Custom #16]
Fluorescence change after 2 hours of reaction at 30° C. [1, 5]: 4,424 ΔRFU | Fluorescence change after 2 hours of reaction at 30° C. [1, 6]: 852 ΔRFU | Fluorescence change after 2 hours of reaction at 30° C. [1, 7]: 1,489 ΔRFU | Expected value λ (×1) ([2]; Example 38, 4 hr): 0.06766 | Extracellular vesicle concentration [2, 8]: 1.353e+09 mL⁻¹ | Expected value λ (×1) ([2]; Example 38, 24 hr): 0.3923 | Extracellular vesicle concentration [2, 9]: 7.845e+09 mL⁻¹ | Expected value λ ([2]; Example 38, EV 2.5 μg/mL, 4 hr): 0.01692 | Number of positives ([2]; Example 38, EV 2.5 μg/mL, 4 hr): 471 | Positive ratio ([2]; Example 38, EV 2.5 μg/mL, 4 hr): 0.01677 | Expected value λ [2, 10]: 0.09807 | Number of positives [2, 10]: 2,623 | Positive ratio [2, 10]: 0.09341

TQ2-WYPAGLRMVK(5-FAM) (TQ2-WYPAGLRMVK(5FAM)) [Custom #13]
Fluorescence change after 2 hours of reaction at 30° C. [1, 5]: 19,279 ΔRFU | Fluorescence change after 2 hours of reaction at 30° C. [1, 6]: 7,073 ΔRFU | Fluorescence change after 2 hours of reaction at 30° C. [1, 7]: 9,939 ΔRFU | Expected value λ (×1) ([2]; Example 38, 4 hr): 0.5455 | Extracellular vesicle concentration [2, 8]: 1.091e+10 mL⁻¹ | Expected value λ (×1) ([2]; Example 38, 24 hr): 1.05 | Extracellular vesicle concentration [2, 9]: 2.101e+10 mL⁻¹ | Expected value λ ([2]; Example 38, EV 2.5 μg/mL, 4 hr): 0.1364 | Number of positives ([2]; Example 38, EV 2.5 μg/mL, 4 hr): 3,573 | Positive ratio ([2]; Example 38, EV 2.5 μg/mL, 4 hr): 0.1275 | Expected value λ [2, 10]: 0.2626 | Number of positives [2, 10]: 6,485 | Positive ratio [2, 10]: 0.2309
